According to article PMC9329948, “Surface-Enhanced Carboxyphenyl Diazonium Functionalized Screen-Printed Carbon Electrode for the Screening of Tuberculosis in Sputum Samples”:

Legend:
[1] = biological target: T1, MPT64 antigen (Mycobacterium tuberculosis, UniProt P9WIN9 24-228); assay: ELONA; 5 uM aptamer; antigen coated at 5 ug/mL; p < 0.0001 vs control; ELONA: antigen coated in 0.06 M carbonate pH 9.6, 3% BSA block, aptamer 2 h at room temperature, 0.01 M PBS washes; aptamer/electrode binding buffer 20 mM Tris-HCl pH 7.4, 150 mM NaCl, 2 mM MgCl2, 2 mM KCl, 2 mM CaCl2, room temperature; settings: protein: recombinant; label: biotin
T1 sequence (P9WIN9 24-228): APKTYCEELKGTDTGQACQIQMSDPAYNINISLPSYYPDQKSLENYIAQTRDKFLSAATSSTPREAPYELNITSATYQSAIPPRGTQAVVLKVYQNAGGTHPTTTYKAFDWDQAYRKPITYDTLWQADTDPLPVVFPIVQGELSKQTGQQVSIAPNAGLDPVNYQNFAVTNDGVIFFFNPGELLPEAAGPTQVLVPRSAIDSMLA

[2] = biological target: T2, CFP10 antigen (Mycobacterium tuberculosis, UniProt P9WNK5 2-100); assay: ELONA; no significant difference from aptamer-alone control; ELONA: antigen coated in 0.06 M carbonate pH 9.6, 3% BSA block, aptamer 2 h at room temperature, 0.01 M PBS washes; aptamer/electrode binding buffer 20 mM Tris-HCl pH 7.4, 150 mM NaCl, 2 mM MgCl2, 2 mM KCl, 2 mM CaCl2, room temperature; settings: protein: recombinant; label: biotin
T2 sequence (P9WNK5 2-100): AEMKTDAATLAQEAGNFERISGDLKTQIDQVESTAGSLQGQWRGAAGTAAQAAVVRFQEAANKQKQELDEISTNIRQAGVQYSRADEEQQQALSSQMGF

[3] = biological target: T2, CFP10 antigen; assay: amperometric sandwich aptasensor; selectivity test; read-out also needs anti-MPT64 antibody; ELONA: antigen coated in 0.06 M carbonate pH 9.6, 3% BSA block, aptamer 2 h at room temperature, 0.01 M PBS washes; aptamer/electrode binding buffer 20 mM Tris-HCl pH 7.4, 150 mM NaCl, 2 mM MgCl2, 2 mM KCl, 2 mM CaCl2, room temperature; settings: protein: recombinant
[4] = biological target: T1, MPT64 antigen; assay: amperometric sandwich aptasensor; HRP anti-MPT64 antibody detection; LOD 1.11 ng/mL, linear 5-200 ng/mL; ELONA: antigen coated in 0.06 M carbonate pH 9.6, 3% BSA block, aptamer 2 h at room temperature, 0.01 M PBS washes; aptamer/electrode binding buffer 20 mM Tris-HCl pH 7.4, 150 mM NaCl, 2 mM MgCl2, 2 mM KCl, 2 mM CaCl2, room temperature; settings: protein: recombinant

| Binder | binding result [1] | binding result [2] | binding result [3] | binding result [4] |
| --- | --- | --- | --- | --- |
| TTTTTTTTTTGGGAGCTGATGTCGCATGGGTTTTGATCACATGA (ssDNA, biotin, position not stated) [MPT64 aptamer, biotinylated (ELONA)] | binds | no binding | – | – |
| TTTTTTTTTTGGGAGCTGATGTCGCATGGGTTTTGATCACATGA (ssDNA, 5' AmMC6) [MPT64 aptamer, 5'-amino (electrode)] | – | – | no binding | binds |
